Measured values published in IntAct's records for PubMed 17213653.

B1: Protein RCR1 (Saccharomyces cerevisiae), P38212 (parent)
chain: MGLISYENEAINEVKKADNHHVSKFVTSYYGPSSSSWQSGIWILFVLFVAAVILIILFTFVANRRRRRMGRAPIRGTAWLTPPSYRQSQQQYTGTVQQRTDDYVPEYTETANEHDLGYYDQRGEFHPNDKAAYVAPPPLVQECSSESVNSLERPPAAVVHQANSLDTDYGLTRPSNGRVPAVSDTVEQLERLPGGTTTQEINPPERAKVNARS
B2: Protein RCR1 (Saccharomyces cerevisiae), P38212 (parent)
chain: B1 chain
partner: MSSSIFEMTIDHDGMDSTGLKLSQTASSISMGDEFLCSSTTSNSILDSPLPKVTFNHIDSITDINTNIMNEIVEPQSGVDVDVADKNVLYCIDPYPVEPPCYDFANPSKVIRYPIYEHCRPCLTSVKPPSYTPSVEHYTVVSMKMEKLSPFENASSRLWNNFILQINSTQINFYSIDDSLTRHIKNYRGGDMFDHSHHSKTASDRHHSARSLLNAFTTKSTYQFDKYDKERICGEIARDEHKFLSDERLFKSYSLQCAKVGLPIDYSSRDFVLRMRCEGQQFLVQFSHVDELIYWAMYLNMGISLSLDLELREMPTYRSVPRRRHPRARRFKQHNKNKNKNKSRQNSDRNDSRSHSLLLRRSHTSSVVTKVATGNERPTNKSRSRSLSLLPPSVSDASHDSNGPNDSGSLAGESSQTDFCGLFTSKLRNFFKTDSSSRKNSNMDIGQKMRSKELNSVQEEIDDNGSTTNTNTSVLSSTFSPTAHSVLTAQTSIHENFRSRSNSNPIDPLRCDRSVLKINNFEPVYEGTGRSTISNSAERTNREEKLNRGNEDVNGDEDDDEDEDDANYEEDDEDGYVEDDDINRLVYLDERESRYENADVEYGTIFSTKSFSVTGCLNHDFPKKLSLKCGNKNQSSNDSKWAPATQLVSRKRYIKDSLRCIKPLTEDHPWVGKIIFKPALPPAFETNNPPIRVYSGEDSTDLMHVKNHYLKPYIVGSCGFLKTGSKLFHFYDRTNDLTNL

Variants of: B1
Settings: with rsp5_yeast RSP5, P39940
Chain of rsp5_yeast RSP5, P39940 (P39940 whole entry): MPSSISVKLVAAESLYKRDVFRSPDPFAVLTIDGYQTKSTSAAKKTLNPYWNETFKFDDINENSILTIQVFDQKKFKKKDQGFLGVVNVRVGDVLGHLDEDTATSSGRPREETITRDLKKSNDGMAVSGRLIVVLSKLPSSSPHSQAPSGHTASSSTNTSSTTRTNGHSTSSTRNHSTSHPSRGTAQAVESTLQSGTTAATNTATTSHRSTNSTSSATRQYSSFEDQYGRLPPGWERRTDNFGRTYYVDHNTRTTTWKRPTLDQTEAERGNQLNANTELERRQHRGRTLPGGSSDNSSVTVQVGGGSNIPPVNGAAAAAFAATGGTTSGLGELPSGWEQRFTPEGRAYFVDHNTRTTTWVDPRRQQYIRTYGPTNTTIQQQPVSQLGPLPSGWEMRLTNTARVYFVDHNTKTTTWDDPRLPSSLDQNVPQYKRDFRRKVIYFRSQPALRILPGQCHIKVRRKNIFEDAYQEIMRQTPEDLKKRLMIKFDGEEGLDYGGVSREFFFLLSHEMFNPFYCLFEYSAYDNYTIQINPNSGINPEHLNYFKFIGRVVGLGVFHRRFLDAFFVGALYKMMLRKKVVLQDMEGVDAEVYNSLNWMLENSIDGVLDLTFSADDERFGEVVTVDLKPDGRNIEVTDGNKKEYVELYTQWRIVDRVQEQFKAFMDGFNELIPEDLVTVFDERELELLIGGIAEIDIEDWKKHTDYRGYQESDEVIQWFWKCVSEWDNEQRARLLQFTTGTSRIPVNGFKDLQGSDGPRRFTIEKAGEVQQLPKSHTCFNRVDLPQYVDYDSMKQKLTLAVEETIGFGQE

effect of a mutation on the interaction | Variant
disrupting interaction | P82Q;P83A;P105A
decreasing interaction | P105A

Variants of: B1
Settings: with rsp5_yeast RSP5, P39940
Remark: another data set of the same source

effect of a mutation on the interaction | Variant
decreasing interaction | P82Q;P83A
disrupting interaction | P105A

Variants of: B2
Settings: with yno4_yeast yno4, P53907

effect of a mutation on the interaction | Variant
disrupting interaction | P82Q;P83A
